The values below come from patent US11692029B2, “Therapy for glaucoma and optic neuropathy by targeting colony stimulating factors” (The Schepens Eye Research Institute, Inc., priority 2018, dated 2023).

Entries after “also recorded” stand apart in the source; their conditions may differ.

Assay [1] concerns retinal ganglion cells (RGC). Description: RGC loss (anti-Brn3a RGC counts, whole-mount retina) in microbead-induced glaucoma mice. Type of assay: in vivo. To be noted: MB-injected high-IOP mice, intravitreal treatment, versus vehicle/saline-treated mice. An excerpt: (§1) FIG. 3A is a line graph showing the intraocular pressure (IOP) level at baseline and up to 42 days/6 weeks post-MB injection of mice receiving either intravitreal injections of CSF1R Ab, CSF2, CSF1R Ab+CSF2 or control vehicle at D3 and D7. FIG. 3B is a bar graph showing the ratio of positive scotopic threshold response (pSTR) of glaucoma eye to contralateral normal eye. FIG. 3C is a bar graph showing the contrast sensitivity (CS) of the OMR. FIG. 3D is a bar graph showing Retinal Ganglion Cells (RGC) density of control (Ctr), vehicle (Veh) and CSF1R Ab, CSF2 and CSF2+CSF1 Ab-treated groups. Note Ctr group are the uninjured eyes. FIGS. 3E-3G are photomicrographs of Brn3a+RGCs (red) at 6 week post-injection of microbeads. In these figures (FIGS. 3A-G), ‘#’ and ‘*’ represents statistical analysis comparing to control and vehicle group, respectively. *, ** and *** represent P value <0.05, 0.01 and 0.001, respectively. #, ## and ### represent P value <0.05, <0.01 and <0.001.
(§2) FIG. 7 is a schematic representation showing the experimental design. […]
Microbeads (MB) were injected into the anterior chamber of adult B6 mice to induce high IOP. The expression of CSF1/2 and their receptors was examined by immunostaining and quantitative polymerase chain reaction (qPCR) at different time points after MB injection. […]

For a further assay, the system named is retinal function (pSTR). As to the kind of experiment: positive scotopic threshold response (pSTR) in microbead-induced glaucoma mice. The settings on record: MB-induced glaucomatous mice, intravitreal treatment, 4 and 6 weeks after MB injection, versus vehicle. Type of assay: in vivo.
Description: as §1, §2
The function of retinal ganglion cells (RGCs) can be non-invasively assessed in experimental and genetic models of glaucoma by means of variants of the ERG technique that emphasize the activity of inner retina neurons. […]

Another assay has as its system visual function. Description: visual function (contrast sensitivity and visual acuity) in microbead-induced glaucoma mice. The format is in vivo. To be noted: MB-induced glaucomatous mice, intravitreal treatment, 4 and 6 weeks after MB injection, versus vehicle.
Description: as §1, with “<0.001. […] FIG. 7 is a schematic representation showing the experimental design. It was hypothesized that inhibiting CSF1 by administration of CSF1R antibody (CSF1R Ab) and/or promoting CSF2 signaling protect RGC against glaucomatous damage. Four experimental groups were proposed: following MB-injection to induce high IOP, mice received treatment of vehicle (PBS), CSF1R Ab, CSF2, or CSF1R Ab+CSF2 were studied. […]” for “<0.001.”

The test system of another assay is microglia. Description: microglial activation in a glaucoma mouse model. Type of assay: in vivo, mice. To be noted: intravitreal injection. An excerpt: Activation of microglia plays a critical role in the progression of neurodegeneration in glaucoma. Colony stimulating factor 1 (CSF1) and colony stimulating factor 2 (CSF2) are involved in glaucomatous neuron loss by regulating microglia function.

Setting [2] is: listed as CSF2 recombinant protein.

B1: CSF2: Granulocyte-macrophage colony-stimulating factor recombinant protein; exemplary source Peprotech Recombinant Murine GM-CSF, Cat #: 315-03 (protein, UniProt P01587 18-141, looked up)
Granulocyte-macrophage …: APTRSPITVTRPWKHVEAIKEALNLLDDMPVTLNEEVEVVSNEFSFKKLTCVQTRLKIFEQGLRGNFTKLKGALNMTASYYQTYCPPTPETDCETQVTTYADFIDSLKTFLTDIPFECKKPGQK
As for B1, the RGC loss entry in assay [1] is on record as “decreased RGC loss; also recorded: reduced or attenuated glaucomatous RGC loss”; in assay [1] (setting [2]), “protected the loss of retinal ganglion cells (RGCs)”. The pSTR amplitude result in the assay with retinal function (pSTR) is “pSTR increased”. Further, the “visual function (vision contrast sensitivity and visual acuity)” value in the assay with visual function was “visual function increased”; in the assay on visual function (setting [2]) it was “protected the loss of retinal ganglion cells (RGCs) and vision function”. The microglial activation result in the assay with microglia is “significantly suppressed microglial activation”.
